Source: the nanobody polyreactivity screen of Harvey et al. (2022)

Experiment: yeast display, Sf9 membrane polyspecificity reagent, FACS + sequencing; frameworks hold sequencing errors
How it was run: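 Galactose induction of a Saccharomyces cerevisiae BJ5465 synthetic nanobody display library ran 36–48 hours. The cells were then stained for 1 hour at 4 °C with 10% biotinylated, detergent-solubilized Sf9 membrane reagent, pulled down on streptavidin microbeads and FACS-sorted into low and high (top ~1%) gates on expression and reagent-binding fluorescence. Labels for polyreactivity follow the gate of origin.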

Sequence | polyreactivity (PSR sort gate)
QVQLVESGGGLVQAGGSLRLSCAASGITFRGYAMGWYRQAPGKERELVASITNTDSTYYADSVKGRFTISRDNAKNTVYLQMNSLKPEDTAVYYCAARRGRKYGYWGQGTQVTVSS | high polyreactivity
QVQLVESGGGLVQAGGSLRLSCAASGITFRHYAMGWYRQAPGKEREMVARIRGGGVSTYYADSVKGRFTISRDNAKNTVYLQMNSLKPEDTAVYYCNAVFESWWGDYDYWGQGTQVTVSS | high polyreactivity
QVQLVESGGGLVQAGGSLRLSCAASGITFRKYFMGWYRQAPGKERELVATITRNGGTTNYADSVKGRFTISRDNAKNTVYLQMNSLKPEDTAVYYCAAPGPGYIYLGFDYWGQGTQVTVSS | high polyreactivity
QVQLVESGGGLVQAGGSLRLSCAASGITFRLYAMGWNRQAPGKERELVAAITGSGGRTYYADSVKGRFTISRDNAKNTVYLHMNSLKPEDTAVYYCAADWRHLRYRGGLKYDYWGQGTQVTFSS | high polyreactivity
QVQLVESGGGLVQAGGSLRLSCAASGITFRLYAMGWYRQAPGKERELVAAISKRGGSTYYADSVKGRFTISRDNAKNTVYLPMNSLKPDDTAVYYCAADSGWEHRYDYWGQGTQVTVSS | high polyreactivity
QVQLVESGGGLVQAGGSLRLSCAASGITFRRYTMGWYRQAPGKEWELVATISLSDGNTYYADSVKGRFTISRDNAKTTVYLQMNSLKPEDTAGYYCNARHTWHQTYDYWGQGTQVTVSS | low polyreactivity
QVQLVESGGGLVQAGGSLRLSCAASGITFRSYAMGWYRQAPGKDRELVAAISRTGGRTYYADSVKGRFTISRDNAKNTVYLQMNSLKAEDSAVYYCAAGGYSPYSLVGYDYWGQGTQVTVSS | high polyreactivity
QVQLVESGGGLVQAGGSLRLSCAASGITFRYYAMGWYRQAPGKERELVATISSSGARTYYADSVKGRFTISRDNAKNTVYFQINSLKPEDTAVYYCNAVTFTLHSQPYDYWGQGTQVTVSS | high polyreactivity
QVQLVESGGGLVQAGGSLRLSCAASGITFRYYAMGWYRQAPGKERELVSVISKGGTSTYYADSVKGRFTISRDNAKITVYLQMNSLKPEDTAVYYCAAAYFSSGYKYYYWGQGNQVTVSS | high polyreactivity
QVQLVESGGGLVQAGGSLRLSCAASGITFRYYPMGWYRPAPGKQRELVAAISRTSGRTYYADSVKGRFTISRDNAKNTVYLQMNSLNPEDPAVYYCNKAWTPSLLYQSYYWGQGPQVTVSS | high polyreactivity
QVQLVESGGGLVQAGGSLRLSCAASGITFRYYTMGWYRQAPGKERELVAVISWSGGSTYYADSVKGRFTISRDNGKNTVYLQMNSLKPEDTAVYYCAAVRRISRYDYWGQGTQVTVSS | high polyreactivity
QVQLVESGGGLVQAGGSLRLSCAASGITFRYYVMGWYRQAPGKERELVASISWGGGSTYYADSVKGRFTISRDNAKNTVYLQMNSLKPEDTAVYYCAARVPRPSYRGMNYWGQGTQVTVSS | high polyreactivity
QVQLVESGGGLVQAGGSLRLSCAASGITFSFYAMGWYRQAPAKERELVATIDSGGSTNYADSVKWRFTISRDNAKNTVYLQMNSLKPEYTAVYYCAADGVWYYYDMDYWGQGTQVTVSS | low polyreactivity
QVQLVESGGGLVQAGGSLRLSCAASGITFSFYAMGWYRQAPRKERELVAGITRSGGDTYYADSVKGRFTISRDNAKNTVYLQMNSLKPEDTAVYDCADAWFFYRRQYTFFAGRMDYWGQGTQVTVSS | high polyreactivity
QVQLVESGGGLVQAGGSLRLSCAASGITFSGNAMGWYIQARGKERELVAGISRRGGSTYYADSVKGSFTISRDNAKNTVYLQINCLKPEATAVYYCADGRDRYRGVAYDYWGQGTQVTVSS | high polyreactivity
QVQLVESGGGLVQAGGSLRLSCAASGITFSGNAMGWYRQAPGKERELVAAISGRGGSTYYADSVKGRFTISRDNAKNTVYLQMNSLKPVDTAVYYCAADSPENRYNYWGQGTQVTVSS | high polyreactivity
